Reference: article PMC10521137

Biological target: Rad53 FHA1 domain, 1-165 (UniProt P22216)
Assay: biotin-peptide streptavidin pulldown, Coomassie stain
Conditions: reference: unphosphorylated peptide (peptide 1); sites T402

binding against the reference: gained
Substance: Pol1 (catalytic subunit of DNA polymerase alpha) 393-412 (from UniProt P13382) pT402 peptide (peptide 2)
